This note sets out measurements from publication PMC5490006 (Nature Communications, 2017).

One assay addresses T1, Mcm6 (budding yeast, UniProt P53091 1-1017).
T1 construct: Mcm6, subunit of the budding yeast MCM (Mcm2-7), expressed as an individual subunit; called Mcm6 fl and the full-length protein; also called Mcm6 fl; full-length Mcm6; source: E. coli, purified
Briefly: pull-down; Cdt1 FLAG held on M2 anti-FLAG agarose, Mcm6 fl or ΔC in solution; 10 μg of each protein, buffer B, 60 min at 4 °C; eluted with FLAG peptide; Coomassie. As to conditions: both partners purified.

Assay [1] deals with T2, Mcm6 within purified Cdt1–MCM complexes (budding yeast, UniProt P53091 1-1017).
T2 construct: Mcm6, yeast MCM subunit, as part of the Cdt1-MCM complex; source: purified Cdt1-MCM complex
T2 sequence (P53091 whole entry, one chain of several): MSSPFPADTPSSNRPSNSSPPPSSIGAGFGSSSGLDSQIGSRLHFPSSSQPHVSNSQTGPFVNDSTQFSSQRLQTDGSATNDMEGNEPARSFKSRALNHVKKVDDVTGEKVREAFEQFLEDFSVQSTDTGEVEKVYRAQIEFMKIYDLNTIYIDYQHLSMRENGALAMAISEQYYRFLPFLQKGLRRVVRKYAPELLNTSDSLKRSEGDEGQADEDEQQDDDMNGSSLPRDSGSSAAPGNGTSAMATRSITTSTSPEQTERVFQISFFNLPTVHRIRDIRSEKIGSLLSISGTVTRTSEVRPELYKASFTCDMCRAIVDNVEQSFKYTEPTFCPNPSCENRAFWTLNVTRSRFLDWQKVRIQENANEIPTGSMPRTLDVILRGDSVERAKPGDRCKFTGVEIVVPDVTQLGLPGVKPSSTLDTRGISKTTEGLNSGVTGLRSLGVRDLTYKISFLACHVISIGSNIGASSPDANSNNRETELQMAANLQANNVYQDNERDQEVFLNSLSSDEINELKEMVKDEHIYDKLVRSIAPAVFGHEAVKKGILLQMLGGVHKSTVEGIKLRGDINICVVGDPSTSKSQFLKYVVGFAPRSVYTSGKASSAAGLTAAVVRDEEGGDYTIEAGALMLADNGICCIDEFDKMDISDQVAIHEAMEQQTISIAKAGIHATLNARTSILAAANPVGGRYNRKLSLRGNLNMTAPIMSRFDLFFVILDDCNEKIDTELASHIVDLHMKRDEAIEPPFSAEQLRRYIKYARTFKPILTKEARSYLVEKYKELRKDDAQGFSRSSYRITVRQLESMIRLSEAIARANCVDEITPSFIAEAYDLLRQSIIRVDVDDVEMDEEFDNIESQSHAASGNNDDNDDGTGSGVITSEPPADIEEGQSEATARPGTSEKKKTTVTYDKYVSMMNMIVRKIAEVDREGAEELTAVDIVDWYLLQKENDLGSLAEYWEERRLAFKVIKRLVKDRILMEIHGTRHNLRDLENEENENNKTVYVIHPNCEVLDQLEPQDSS
Kind of assay: cross-linking; MCM-Cdt1 FLAG complex (200 μg) crosslinked with 20, 50 and 100 μM BS3; denatured with SDS; denaturing anti-FLAG immunoprecipitation; silver staining, bands identified by immunoblotting and mass spectrometry. The conditions noted are these: both partners purified.

T1 sequence (P53091 whole entry): as the sequence (P53091 whole entry, one chain of several) above

B1: Cdt1 FLAG (natural protein, S. cerevisiae, UniProt P47112 1-604, looked up)
chain: MSGTANSRRKEVLRVPVIDLNRVSDEEQLLPVVRAILLQHDTFLLKNYANKAVLDALLAGLTTKDLPDTSQGFDANFTGTLPLEDDVWLEQYIFDTDPQLRFDRKCRNESLCSIYSRLFKLGLFFAQLCVKSVVSSAELQDCISTSHYATKLTRYFNDNGSTHDGADAGATVLPTGDDFQYLFERDYVTFLPTGVLTIFPCAKAIRYKPSTMATTDNSWVSIDEPDCLLFHTGTLLARWSQGMHTTSPLQIDPRANIVSLTIWPPLTTPISSKGEGTIANHLLEQQIKAFPKVAQQYYPRELSILRLQDAMKFVKELFTVCETVLSLNALSRSTGVPPELHVLLPQISSMMKRKIVQDDILKLLTIWSDAYVVELNSRGELTMNLPKRDNLTTLTNKSRTLAFVERAESWYQQVIASKDEIMTDVPAFKINKRRSSSNSKTVLSSKVQTKSSNANALNNSRYLANSKENFMYKEKMPDSQANLMDRLRERERRSAALLSQRQKRYQQFLAMKMTQVFDILFSLTRGQPYTETYLSSLIVDSLQDSNNPIGTKEASEILAGLQGILPMDISVHQVDGGLKVYRWNSLDKNRFSKLLQIHKSKQQD
notes: Cdt1, S. cerevisiae, FLAG-tagged; also called FLAG-tagged Cdt1; source: purified; alone for the pull-downs, within the MCM-Cdt1 FLAG complex for the crosslinking
B1: the binding result (with Mcm6; in assay [1]) was “binds” in each case.
